This is an account of results in the supplement of paper PMC10899765.

Holding throughout (settings): 20 nM; 72 h
For data set [1], the system named is MCF10A. Nature of the data set: percent viability (nuclei count relative to siNT); higher = more viable cells. The procedure: (§1)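 After 72 h, cells were fixed and stained with Hoechst and anti-fibrillarin, and nucleoli per nucleus were counted with CellProfiler. Values are plate-adjusted percent effect for the one-nucleolus and 5+ nucleoli phenotypes, normalised to siNT (0%) and to the positive controls siNOL11 or siKIF11 (100%), as the mean of biological triplicates. Percent viability is the nuclei count relative to siNT.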

Data set [2] deals with MCF10A. The experiment in a line: 5+ nucleoli phenotype percent effect (relative to siNT 0% and siKIF11 100%); higher = more cells with five or more nucleoli. The method, then: as §1
The test system of data set [3] is MCF10A. The experiment in a line: one-nucleolus phenotype percent effect (relative to siNT 0% and siNOL11 100%); higher = more cells with one nucleolus (ribosome biogenesis inhibition). The procedure:
as §1

“UUGGCCACCACACCUACCCCUU [hsa-miR-4701-5p]”: the percent viability with MCF10A [1] was 35.9%. In the data set on MCF10A [2], the “5+ nucleoli phenotype percent effect” value stood at 19.1%. The “one-nucleolus phenotype percent effect” value in the data set on MCF10A [3] turned out to be 1.71%.
The matching figures for UAUUCAGAAAGGUGCCAGUCA [hsa-miR-892c-5p]: 71.8%, 9.47% and -3.71%.
The matching figures for GAACUCACCCUCUGCUCCCAG [hsa-miR-6750-3p]: 99%, 29.7% and -8.73%.
In the same order, the values of GGGGAACUGUAGAUGAAAAGGC [hsa-miR-8059] are 101%, 34.6% and -28.4%.
CUAUACAAUCUACUGUCUUUC [hsa-let-7a-3p]: the percent viability with MCF10A [1] turned out to be 93.9%. The “5+ nucleoli phenotype percent effect” value in the data set on MCF10A [2] turned out to be 10.6%. The “one-nucleolus phenotype percent effect” value in the data set with MCF10A [3] is -10.4%.
The matching figures for UAUGUCCCAUCCCUCCAUCA [hsa-miR-6834-3p]: 22.7%, -28.7% and 21.4%.
In the same order, the values of “CUCCUCCACAGCCCCUGCUCAU [hsa-miR-6792-3p]” are 56.4%, -21.5% and -4.72%.
“AGGGAAGGGGACGAGGGUUGGG [hsa-miR-5196-5p]”: in the data set with MCF10A [1], the percent viability was 40.5%. Also, the “5+ nucleoli phenotype percent effect” value with MCF10A [2] is 4.34%. In addition, the “one-nucleolus phenotype percent effect” value in the data set on MCF10A [3] is 5.32%.
In the same order, the values of AUGGAUAAGGCUUUGGCUU [hsa-miR-1261] are 50.3%, -12.9% and 24.4%.
The matching figures for UUUAAGAAAACACCAUGGAGAU [hsa-miR-3658]: 148%, 18.1% and -25.1%.
In the same order, the values of UUGUGAAGAAAGAAAUUCUUA [hsa-miR-3611] are 53.1%, -15.1% and 12.5%.
“UUUCUUCUUAGACAUGGCAGCU [hsa-miR-4659b-3p]”: the percent viability in the data set on MCF10A [1] was 31.6%. In the data set with MCF10A [2], the “5+ nucleoli phenotype percent effect” value is -29.4%. Further, the “one-nucleolus phenotype percent effect” value with MCF10A [3] is -5.32%.
With UAUUGCACUUGUCCCGGCCUGU [hsa-miR-92a-3p], the percent viability in the data set on MCF10A [1] stood at 88.8%. In addition, in the data set on MCF10A [2], the “5+ nucleoli phenotype percent effect” value came to 4.47%. Moreover, the “one-nucleolus phenotype percent effect” value with MCF10A [3] is -3.22%.
In the same order, the values of CUAUACGACCUGCUGCCUUUCU [hsa-let-7d-3p] are 84.7%, 18.1% and -15.3%.
In the same order, the values of “CAAAACCGCAGUAACUUUUGU [hsa-miR-548at-3p]” are 33%, -23.4% and 37.5%.
The matching figures for UCUGAAUAGAGUCUGAAGAGU [hsa-miR-4427]: 71.5%, 39.9% and -23.1%.
Consider “UGGUUCUCUUGUGGCUCAAGCGU [hsa-miR-597-3p]”, for which the percent viability in the data set on MCF10A [1] turned out to be 22.4%. In addition, the “5+ nucleoli phenotype percent effect” value with MCF10A [2] is -23%. The “one-nucleolus phenotype percent effect” value with MCF10A [3] is 44.1%.
Take CAAAAACCGGCAAUUACUUUUG [hsa-miR-548ac]: in the data set on MCF10A [1], the percent viability is 72.6%. Moreover, the “5+ nucleoli phenotype percent effect” value in the data set on MCF10A [2] was 8.34%. For the same sequence, the “one-nucleolus phenotype percent effect” value in the data set on MCF10A [3] was -15.1%.
The matching figures for UCAGUGCAUGACAGAACUUGG [hsa-miR-152]: 145%, 69.9% and -26.4%.
The matching figures for AACCCGUAGAUCCGAACUUGUG [hsa-miR-100-5p]: 45.1%, -0.958% and 9.92%.
The matching figures for AAACUACUGAAAAUCAAAGAU [hsa-miR-606]: 133%, 18.1% and -12.6%.
In the case of “GGCUUUCUAGUCUCAGCUCUCC [hsa-miR-3160-5p]”, in the data set on MCF10A [1], the percent viability was determined as 110%. The “5+ nucleoli phenotype percent effect” value with MCF10A [2] was 38.5%. Moreover, the “one-nucleolus phenotype percent effect” value in the data set on MCF10A [3] is -16.4%.
In the same order, the values of GCUCCCUCUAGGGUCGCUCGGA [hsa-miR-4469] are 67.3%, 66% and -24.8%.
The matching figures for AGGGACGGGACGCGGUGCAGUG [hsa-miR-92b-5p]: 75.4%, 34.3% and 2.12%.
In the same order, the values of AUUGACACUUCUGUGAGUAGA [hsa-miR-514a-3p] are 56.9%, -5.72% and 13.2%.
As for AAAGUGCUUCCUUUUUGAGGG [hsa-miR-520e], the percent viability in the data set with MCF10A [1] was 84.4%. For the same sequence, in the data set with MCF10A [2], the “5+ nucleoli phenotype percent effect” value was determined as 57.7%. For the same sequence, the “one-nucleolus phenotype percent effect” value in the data set with MCF10A [3] was -14.9%.
As for CUAGGAGGCCUUGGCC [hsa-miR-4266], the percent viability in the data set on MCF10A [1] turned out to be 52.6%. In the data set with MCF10A [2], the “5+ nucleoli phenotype percent effect” value is -14.2%. The “one-nucleolus phenotype percent effect” value in the data set on MCF10A [3] is 7.31%.
The matching figures for AUGCCUCCCCCGGCCCCGCAG [hsa-miR-6836-3p]: 41.9%, -0.9% and -8.85%.
In the same order, the values of AUAGGCACCAAAAAGCAACAA [hsa-miR-4423-3p] are 12.9%, -11.3% and 0.708%.
In the same order, the values of “GUGAGGCGGGGCCAGGAGGGUGUGU [hsa-miR-6765-5p]” are 72.9%, 16% and -21.4%.
In the case of CGCGCGGCCGUGCUCGGAGCAG [hsa-miR-4479], the percent viability in the data set on MCF10A [1] was 34.8%. For the same sequence, in the data set on MCF10A [2], the “5+ nucleoli phenotype percent effect” value is -37.9%. The “one-nucleolus phenotype percent effect” value with MCF10A [3] came to 54.5%.
The matching figures for “CUCUCUACUGACUUGCAACAUA [hsa-miR-4684-5p]”: 72.5%, 33.1% and -6.81%.
The matching figures for UUGCCUGCCCUCUUCCUCCAG [hsa-miR-6894-3p]: 24.2%, -20.1% and 22.3%.
Regarding “UCUGUGCUUCACCCCUACCCAG [hsa-miR-6737-3p]”, the percent viability with MCF10A [1] is 68.8%. Also, the “5+ nucleoli phenotype percent effect” value with MCF10A [2] is -3.33%. For the same sequence, the “one-nucleolus phenotype percent effect” value in the data set with MCF10A [3] was 3.19%.
In the case of UAUACAAGGGCAAGCUCUCUGU [hsa-miR-381-3p], the percent viability with MCF10A [1] was determined as 90.7%. In the data set with MCF10A [2], the “5+ nucleoli phenotype percent effect” value was 3.97%. The “one-nucleolus phenotype percent effect” value in the data set with MCF10A [3] was -13.7%.
In the same order, the values of UCAGUUCCAGGCCAACCAGGCU [hsa-miR-584-3p] are 43.9%, 3.58% and 19.6%.
Regarding AACGGGAAUGCAGGCUGUAUCU [hsa-miR-4681], in the data set on MCF10A [1], the percent viability was determined as 30.6%. In addition, the “5+ nucleoli phenotype percent effect” value in the data set on MCF10A [2] turned out to be 46%. Further, the “one-nucleolus phenotype percent effect” value with MCF10A [3] was -21%.
The matching figures for CCUCCUGCCCUCCUUGCUGU [hsa-miR-1976]: 79.5%, 21.5% and 7.39%.
In the same order, the values of AACAUUCAUUGUUGUCGGUGGGU [hsa-miR-181d] are 91.1%, 12.5% and -6.07%.
Take “UGACCUUUGCCUCUCCCCUCAG [hsa-miR-6759-3p]”: the percent viability in the data set with MCF10A [1] was determined as 20.7%. Further, in the data set with MCF10A [2], the “5+ nucleoli phenotype percent effect” value was -31.2%. Moreover, in the data set on MCF10A [3], the “one-nucleolus phenotype percent effect” value was 51.3%.
For “UGUUGUCAUGUUUUUUCCCUAG [hsa-miR-6755-3p]”, in the data set with MCF10A [1], the percent viability is 26%. Also, the “5+ nucleoli phenotype percent effect” value in the data set with MCF10A [2] stood at 34.6%. Besides, in the data set on MCF10A [3], the “one-nucleolus phenotype percent effect” value was -6.42%.
UGUCCUCUGUUCCUCAG [hsa-miR-6852-3p]: in the data set on MCF10A [1], the percent viability came to 17.2%. Also, in the data set on MCF10A [2], the “5+ nucleoli phenotype percent effect” value came to 9.01%. Further, the “one-nucleolus phenotype percent effect” value with MCF10A [3] is 43.6%.
Take “UCCCCCAGGUGUGAUUCUGAUUU [hsa-miR-361-3p]”: the percent viability in the data set with MCF10A [1] came to 74.8%. Further, in the data set with MCF10A [2], the “5+ nucleoli phenotype percent effect” value amounted to 21.5%. In addition, the “one-nucleolus phenotype percent effect” value in the data set with MCF10A [3] is -5.19%.
The matching figures for UCUUUGGUUAUCUAGCUGUAUGA [hsa-miR-9-5p]: 54.9%, -15.1% and 20.5%.
Turning to “UGUAAACAUCCUACACUCUCAGC [hsa-miR-30c-5p]”, in the data set on MCF10A [1], the percent viability is 69.4%. The “5+ nucleoli phenotype percent effect” value in the data set with MCF10A [2] was found to be 21.9%. In addition, the “one-nucleolus phenotype percent effect” value with MCF10A [3] was determined as 3.37%.
In the same order, the values of “UAGUGCAAUAUUGCUUAUAGGGU [hsa-miR-454-3p]” are 121%, 54.6% and -20.8%.
In the same order, the values of “UGCAUGACCCUUCCCUCCCCAC [hsa-miR-6797-3p]” are 31.8%, -8.08% and 1.95%.
The matching figures for GCUGCGGGCUGCGGUCAGGGCG [hsa-miR-4734]: 40.7%, 8.16% and -5.38%.
